We go through one molecule from PMC9884178 (Nature, 2022).

This assay deals with T1, WaaL from Cupriavidus metallidurans (CmWaaL) in MSP1E3D1 nanodiscs, as used for ELISA (Cupriavidus metallidurans CH34).
T1 chain: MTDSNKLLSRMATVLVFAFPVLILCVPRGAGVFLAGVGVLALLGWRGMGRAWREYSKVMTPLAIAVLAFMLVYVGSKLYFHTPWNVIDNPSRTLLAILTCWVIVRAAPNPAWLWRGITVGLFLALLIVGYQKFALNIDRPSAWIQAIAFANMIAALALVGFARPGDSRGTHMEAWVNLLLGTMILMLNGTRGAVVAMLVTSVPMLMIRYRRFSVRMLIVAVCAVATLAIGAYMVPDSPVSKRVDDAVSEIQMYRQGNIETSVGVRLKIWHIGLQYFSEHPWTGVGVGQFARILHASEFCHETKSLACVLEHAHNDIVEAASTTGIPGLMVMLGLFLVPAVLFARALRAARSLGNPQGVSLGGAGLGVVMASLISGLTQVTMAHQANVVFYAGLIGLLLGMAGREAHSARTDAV
Kind of assay: ELISA.

B1: WaB10 Fab (synthetic antigen binder against CmWaaL) (Fab, V domains shown)
VH: EVQLVESGGGLVQPGGSLRLSCAASGFNVYSSSIHWVRQAPGKGLEWVAYISSYYGSTYYADSVKGRFTISADTSKNTAYLQMNSLRAEDTAVYYCARIMFKWVSPNMAFDYWGQGTLVTVSS
VL: DIQMTQSPSSLSASVGDRVTITCRASQSVSSAVAWYQQKPGKAPKLLIYSASSLYSGVPSRFSGSRSGTDFTLTISSLQPEDFATYYCQQSYYSLVTFGQGTKVEIK
As to B1, it took 1.87 nM to reach a half-maximal effect (EC50).
